According to patent US20050053613A1:

Biological target: CD8 on peripheral blood T cells (UniProt P01732)
Experiment: cell-based or functional assay

gp180, mAb B9 affinity-purified material from T84 cells (from UniProt P06731 35-685)
killing in a CTL assay testing alloreactive CTL: < 15%
